In patent US20240252628A1 (ACCELERON PHARMA, published 2024):

Tests used:
[1] = target: T1, BMP10 (UniProt O95393 317-424); test: SPR (Biacore), anti-Fc capture of receptor, 37 C
T1 sequence (looked up): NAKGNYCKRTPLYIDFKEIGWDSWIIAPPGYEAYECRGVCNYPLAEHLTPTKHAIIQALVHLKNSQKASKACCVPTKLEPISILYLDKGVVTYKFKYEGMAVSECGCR
Method: (§1) A Biacore™-based binding assay was used to compare the ligand binding kinetics of an ActRIIB-Fc:ActRIIB(L79E)-Fc heterodimer with those of unmodified ActRIIB-Fc homodimer. Fusion proteins were captured onto the system using an anti-Fc antibody. Ligands were then injected and allowed to flow over the captured receptor protein at 37° C. Results are summarized in the table below, in which ligand off-rates (kd) most indicative of effective ligand traps are denoted in bold.

[2] = target: T2, activin A (UniProt P08476 311-426); test: SPR (Biacore), anti-Fc capture of receptor, 37 C
T2 construct: The same holds for m2-m11
T2 sequence (looked up): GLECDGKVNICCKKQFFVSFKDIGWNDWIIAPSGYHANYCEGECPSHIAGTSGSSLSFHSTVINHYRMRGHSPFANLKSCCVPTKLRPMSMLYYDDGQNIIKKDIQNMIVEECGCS
Method: as §1

B1: ActRIIB-Fc:ActRIIB(L79E)-Fc heterodimer (Fc fusion)
chain 1: GRGEAETRECIYYNANWELERTNQSGLERCEGEQDKRLHCYASWRNSSGTIELVKKGCWEDDFNCYDRQECVATEENPQVYFCCCEGNFCNERFTHLPEAGGPEVTYEPPPTAPTGGGTHTCPPCPAPELLGGPSVFLFPPKPKDTLMISRTPEVTCVVVDVSHEDPEVKFNWYVDGVEVHNAKTKPREEQYNSTYRVVSVLTVLHQDWLNGKEYKCKVSNKALPAPIEKTISKAKGQPREPQVYTLPPSREEMTKNQVSLTCLVKGFYPSDIAVEWESNGQPENNYDTTPPVLDSDGSFFLYSDLTVDKSRWQQGNVFSCSVMHEALHNHYTQKSLSLSPG
chain 2: GRGEAETRECIYYNANWELERTNQSGLERCEGEQDKRLHCYASWRNSSGTIELVKKGCWLDDFNCYDRQECVATEENPQVYFCCCEGNFCNERFTHLPEAGGPEVTYEPPPTAPTGGGTHTCPPCPAPELLGGPSVFLFPPKPKDTLMISRTPEVTCVVVDVSHEDPEVKFNWYVDGVEVHNAKTKPREEQYNSTYRVVSVLTVLHQDWLNGKEYKCKVSNKALPAPIEKTISKAKGQPREPQVYTLPPSRKEMTKNQVSLTCLVKGFYPSDIAVEWESNGQPENNYKTTPPVLKSDGSFFLYSKLTVDKSRWQQGNVFSCSVMHEALHNHYTQKSLSLSPGK
notes: the receptor domains are the same in both; also called ActRIIB-Fc:ActRIIB(L79E)-Fc heteromer
fold faster off-rate than ActRIIB-Fc homodimer [1]: ~10 fold
fold faster off-rate than ActRIIB-Fc homodimer [2]: ~10 fold
